This note sets out measurements from publication PMC6050537, “Inhibition of low-density lipoprotein receptor degradation with a cyclic peptide that disrupts the homodimerization of IDOL E3 ubiquitin ligase” (Chemical Science, 2018).

The term Kd denotes the equilibrium constant for the complex coming apart. Higher therefore signals weaker binding.

Test [1] concerns the target Full length IDOL (1–445) (UniProt Q8WY64). Nature of the test: MST; as a6 but in the presence of RINGpep2 (100 μM); apparent; homodimer to monomers.
For test [2] the target is unchanged. Nature of the test: MST; increasing concentrations of unlabelled IDOL titrated into a 45 nM solution of dye-labelled IDOL; homodimer to monomers.

Regarding “Full length IDOL (1–445) (from UniProt Q8WY64 1-445) (enzyme)”, the apparent KD in the presence of RINGPep2 (100 μM) in test [1] was found to be 11.1 µM. This substance gave a Kd in test [2] of 2900 nM.
